Columns and labels:
[1] = biological target: M2-1 fused to GFP, expressed by the recombinant virus RSV-M2-1-GFP (human respiratory syncytial virus, strain Long); assay: co-IP; GFP-Trap beads on lysates of HEp-2 cells infected with RSV-M2-1-GFP, 14 h p.i., without RNAse in the lysis; immunoblot
[2] = biological target: M2-1 fused to GFP, expressed by the recombinant virus RSV-M2-1-GFP (human respiratory syncytial virus, strain Long); assay: co-IP; GFP-Trap beads on lysates of HEp-2 cells infected with RSV-M2-1-GFP or RSV-GFP (control), 14 h p.i., with RNAse (RNAse A or broad-spectrum nuclease) in the lysis; Tris 10 mM pH 7.5, NaCl 150 mM, IGEPAL CA-630 0.5%; overnight at 4 °C; immunoblot
[3] = biological target: M2-1 fused to the N2 complementation fragment of NanoLuc (human respiratory syncytial virus, strain Long); assay: split reporter (BiFC, NanoBiT); NanoLuc two-hybrid (N2H) complementation in HEK293T cells, 24 h after transfection; lysates incubated 1 h with 100 µg/ml RNAse A; normalized luminescence ratio (NLR) over control protein pairs

Substance | percent of total PABPC1 in the input co-immunoprecipitated [1] | percent of total PABPC1 in the input co-immunoprecipitated [2] | NLR as percent of the signal of the whole PABPC1 [3]
cytoplasmic polyA-binding protein 1 (PABPC1), endogenous in HEp-2 cells (from UniProt P11940 1-636) (natural protein) | 5.71% | 2.08% | 
PABPC1 fragment 492-636 fused to the N1 fragment of NanoLuc (from UniProt P11940 492-636) (domain or fragment) |  |  | 50%

— paper PMC6813310
